Several values for one entry are separate records, joined by “and”; a condition that tells them apart may be missing. Equal entries are not always repeated.

The text below walks through data of patent US20210130452A1 (Merck KGaA, published 2021).

The target in test [1] is T1, human IL-17A/F heterodimer (human, UniProt Q16552 24-155; Q96PD4 31-163, limits assumed, biotinylated with Sulfo-NHS-LC-Biotin in the AlphaScreen assays only).
T1 construct: also called hIL-17A/F
The test can be described thus: SPR Biacore, hIL-17A/F on chip; periplasmic extract (*); NB = no binding. For orientation: In SPR one partner is held on a chip, and binding of the other changes the refractive index at the surface.
Protocol: (§1) Off-rates of the periplasmic extracts containing anti-IL-17 Nanobodies were measured by Surface Plasmon Resonance (SPR) using a Biacore T100 instrument. […] Periplasmic extracts containing IL-17 neutralizing Nanobodies were injected for 2 minutes at a flow rate of 45 μl/min to allow binding to chip-bound antigen. Next, binding buffer without periplasmic extracts was sent over the chip at the same flow rate to allow spontaneous dissociation of bound Nanobody. From the sensorgrams obtained for the different periplasmic extracts koff-values (k₄) were calculated.

The target of test [2] is T2, human IL-17A (human, UniProt Q16552 24-155, biotinylated with Sulfo-NHS-LC-Biotin in the AlphaScreen assays only). Briefly: cell-based or functional assay.
For test [3], the target named is T2, human IL-17A. The test can be described thus: SPR Biacore, hIL-17A on chip; periplasmic extract (*).
Protocol: as §1
For test [4], the target named is T2, human IL-17A. Briefly: AlphaScreen competition, hIL-17A - IL-17RA-Fc. (In Alpha technology, singlet oxygen from a donor bead excites a nearby acceptor bead.)
Protocol: (§2) To this mixture, the IL-17RA or IL-17RC Fc-fusions, Acceptor beads and the streptavidin Donor beads were added and further incubated for 1 hour at RT.
In test [5] the target is T2, human IL-17A. Briefly: AlphaScreen competition, hIL-17A - IL-17RC-Fc.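 Note: Read-out after 1 h at room temperature with the receptor Fc-fusion, Acceptor beads and streptavidin-coated Donor beads present.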
Protocol: as §2
Test [6] deals with T3, human IL-17F (human, UniProt Q96PD4 31-163, biotinylated with Sulfo-NHS-LC-Biotin in the AlphaScreen assays only).
T3 construct: also called hIL-17F; recombinant human IL-17F
T3 sequence: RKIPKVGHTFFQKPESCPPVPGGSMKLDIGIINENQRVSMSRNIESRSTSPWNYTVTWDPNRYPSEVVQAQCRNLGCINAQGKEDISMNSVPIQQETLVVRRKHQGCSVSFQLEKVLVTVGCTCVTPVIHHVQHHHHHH
Briefly: SPR Biacore, hIL-17F on chip; periplasmic extract (*); NB = no binding.

Test [7] concerns the target T4, marmoset IL-17F (marmoset, UniProt A6N6I9 31-163).
T4 sequence (looked up): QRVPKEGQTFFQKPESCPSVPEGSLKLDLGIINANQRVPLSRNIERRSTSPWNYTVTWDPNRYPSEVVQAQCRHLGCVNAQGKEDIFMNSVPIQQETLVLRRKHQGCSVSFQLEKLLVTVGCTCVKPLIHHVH
The test can be described thus: ELISA, coated IL-17F. (An ELISA detects its analyte on a solid surface through an enzyme-linked reagent.)
Protocol: (§3) Binding of a selected panel of anti-IL-17 Nanobodies to IL-17 of other species was assessed using a binding ELISA. […] HRP (horseradish peroxidase) conjugated anti-myc (Serotec, MCA 2200P) was used for detection using esTMB as substrate.

Test [8] addresses T5, human IL-17F (human, UniProt Q96PD4 31-163).
T5 construct: GenBank AF384857, expressed in Hek293 as 6-His C-terminal tagged protein; also called hIL-17F; IL-17F-6HIS
T5 sequence: T3 sequence
The test can be described thus: ELISA, coated IL-17F.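 Note: binding ELISA on coated antigen from various species, with bound Nanobodies revealed by an HRP-linked anti-myc antibody and esTMB substrate.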
Protocol: as §3

The target in test [9] is T6, human IL-17A (human, UniProt Q16552 24-155).
T6 construct: secreted form (GenBank U32659) expressed in Hek293 with C-terminal 6-His; also called hIL-17A; IL-17A-6HIS
The test can be described thus: KinExA, 600 pM Nanobody.

In test [10] the target is T7, rat IL-17A (rat, UniProt Q61453 18-150, limits assumed).
T7 sequence (looked up): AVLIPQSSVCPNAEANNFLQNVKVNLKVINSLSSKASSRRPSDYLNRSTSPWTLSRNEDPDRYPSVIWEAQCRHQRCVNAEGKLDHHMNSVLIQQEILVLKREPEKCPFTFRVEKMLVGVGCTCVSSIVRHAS
Briefly: ELISA, coated IL-17A.
Protocol: as §3

In test [11] the target is guinea pig IL-17A (guinea pig). The test can be described thus: ELISA, coated IL-17A.
Protocol: as §3
Test [12] concerns the target T8, mouse IL-17A (mouse, UniProt Q62386 26-158).
T8 sequence (looked up): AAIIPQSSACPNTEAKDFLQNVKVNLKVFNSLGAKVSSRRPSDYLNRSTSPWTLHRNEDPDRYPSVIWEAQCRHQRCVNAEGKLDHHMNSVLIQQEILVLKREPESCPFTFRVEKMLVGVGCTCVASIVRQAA
The test can be described thus: ELISA, coated IL-17A.
Protocol: as §3

Test [13] deals with T6, human IL-17A. The test can be described thus: ELISA, coated IL-17A.
Protocol: as §3
The target in test [14] is T9, marmoset IL-17A (marmoset, IL-17A is a disulfide-linked homodimer. One chain is given.).
T9 chain: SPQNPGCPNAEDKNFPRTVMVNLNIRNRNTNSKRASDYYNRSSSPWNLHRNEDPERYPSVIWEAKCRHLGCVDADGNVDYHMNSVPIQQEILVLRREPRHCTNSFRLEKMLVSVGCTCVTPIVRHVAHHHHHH
Briefly: ELISA, coated IL-17A.
Protocol: as §3

The target of test [15] is T6, human IL-17A. The test can be described thus: AlphaScreen IL-17A-IL-17RA, average.
The target of test [16] is T6, human IL-17A. The test can be described thus: SPR.
In test [17] the target is T10, human IL-17A/F heterodimer (human, UniProt Q16552 24-155; Q96PD4 31-163, limits assumed).
T10 construct: produced in E. coli, bought from R&D Systems (Cat 5194-IL/CF); also called hIL-17A/F
The test can be described thus: SPR.

Test [18] addresses T6, human IL-17A. The test can be described thus: SPR, IL-17A-Nanobody complex over captured IL-17RA.
Description: The receptor (IL-17RA or IL-17RC) was captured via its human Fc-tail by an anti-human IgG-Fc antibody coated on the chip.
In test [19] the target is T6, human IL-17A. The test can be described thus: KinExA, 30 pM Nanobody.
Test [20] concerns the target T6, human IL-17A. The test can be described thus: KinExA, 100 pM Nanobody.
Protocol: (§4) The affinity of a limited set of formatted Nanobodies was determined using the KinExA.
Test [21] has as its target T5, human IL-17F. The test can be described thus: cell-based or functional assay.
Test [22] addresses T6, human IL-17A. Briefly: cell-based or functional assay.
Test [23] concerns the target T6, human IL-17A. The test can be described thus: competition ELISA IL17A-RA.
Protocol: To this end, IL-17RA, respectively IL-17RC was coated at a concentration of 1 μg/ml in PBS.
Test [24] has as its target T5, human IL-17F. Briefly: KinExA, 300 pM Nanobody.
Protocol: as §4
Test [25] has as its target T6, human IL-17A. The test can be described thus: KinExA, 300 pM Nanobody.
Protocol: as §4
For test [26], the target named is T11, Cynomolgus monkey IL-17F (Cynomolgus monkey, UniProt G7P4V0 31-163).
T11 sequence: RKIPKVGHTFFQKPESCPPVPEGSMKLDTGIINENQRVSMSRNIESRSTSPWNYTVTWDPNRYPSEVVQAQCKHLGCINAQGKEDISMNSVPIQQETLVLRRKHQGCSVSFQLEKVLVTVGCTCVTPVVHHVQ
The test can be described thus: cell-based or functional assay.

Test [27] addresses Cynomolgus monkey IL-17A (Cynomolgus monkey, UniProt A0A2K5TTB0 24-155). The test can be described thus: cell-based or functional assay.
In test [28] the target is T12, rat IL-17F (rat, UniProt Q5BJ95 29-161).
T12 sequence (looked up): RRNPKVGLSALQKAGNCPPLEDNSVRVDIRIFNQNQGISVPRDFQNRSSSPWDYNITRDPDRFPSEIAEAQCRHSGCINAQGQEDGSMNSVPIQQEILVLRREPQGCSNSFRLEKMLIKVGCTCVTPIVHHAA
Briefly: ELISA, coated IL-17F.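 Note: binding ELISA on coated antigen from various species, with bound Nanobodies revealed by an HRP-linked anti-myc antibody and esTMB substrate.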
Protocol: as §3

Test [29] deals with T13, mouse IL-17F (mouse, UniProt Q7TNI7 29-161).
T13 sequence (looked up): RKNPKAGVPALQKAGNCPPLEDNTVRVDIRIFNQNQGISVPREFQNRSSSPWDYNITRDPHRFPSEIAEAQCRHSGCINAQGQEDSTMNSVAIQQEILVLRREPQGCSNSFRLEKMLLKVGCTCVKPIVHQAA
The test can be described thus: ELISA, coated IL-17F.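 Note: binding ELISA on coated antigen from various species, with bound Nanobodies revealed by an HRP-linked anti-myc antibody and esTMB substrate.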
Protocol: as §3

Test [30] concerns the target T6, human IL-17A. Briefly: KinExA, 200 pM Nanobody.
The target in test [31] is T5, human IL-17F. The test can be described thus: KinExA, 10 pM Nanobody.
Test [32] has as its target T5, human IL-17F. The test can be described thus: cell-based or functional assay. This is another data set of the same source.
The target of test [33] is T6, human IL-17A. Briefly: cell-based or functional assay. This is another data set of the same source.
Test [34] concerns the target T5, human IL-17F. Briefly: KinExA, 50 pM Nanobody.
Protocol: as §4
The target of test [35] is T6, human IL-17A. The test can be described thus: KinExA, 50 pM Nanobody.
Protocol: as §4

T2 sequence (Q16552 other isoform, or with tags, fused parts or gaps): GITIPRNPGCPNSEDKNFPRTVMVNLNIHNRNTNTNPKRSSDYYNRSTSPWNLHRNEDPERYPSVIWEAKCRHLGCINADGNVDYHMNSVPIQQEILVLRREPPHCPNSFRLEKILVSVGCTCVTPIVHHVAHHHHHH
T6 sequence (Q16552 other isoform, or with tags, fused parts or gaps): as above
T1 sequence (Q16552 24-155 limits assumed, one chain of several): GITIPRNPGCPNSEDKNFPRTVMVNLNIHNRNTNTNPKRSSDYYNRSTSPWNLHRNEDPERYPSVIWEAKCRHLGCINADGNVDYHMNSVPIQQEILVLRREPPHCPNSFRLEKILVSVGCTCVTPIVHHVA
T10 sequence (Q16552 24-155 limits assumed, one chain of several): as above
Chain of Cynomolgus monkey IL-17A (A0A2K5TTB0 entry or part of it): as the sequence (Q16552 24-155 limits assumed, one chain of several) above, with T3A, P8S, N34S, I77V, N78K, P104R counted along it

B1: 03B08 (VHH)
VHH: EVQLVESGGGLVQAGGSLRLSCAASGFTFDDYAIGWFRQAPGKEREGVSCISSSDGSIYYADSVKGRFTISSDNAKNTVYLQMNSLKPEDTAVYHCARFGRTGWAEECVDYDYWGQGTQVTVSS
notes: Class 1 Nanobody (anti-IL-17A); not shown: c-myc, His6 tag
As for B1, the binding result in test [1] and in test [6] was “no binding” in each case. Besides, in [2], the “IL-17A-induced IL-6 production in HT-1080 cells, Emax” value worked out at 98.5%. Besides, the “IL-17A-induced IL-6 production in HT-1080 cells, IC50” value in test [2] worked out at 3600 pM. Moreover, the koff (commonly a measure of how fast the partners let go of each other) in [3] was 0.0001 s⁻¹. In addition, the IC50 (commonly the point on the concentration scale where inhibition reaches its midpoint) in test [4] was 80 pM; in test [5], 384 pM.

B2: 01G03 (VHH)
VHH: EVQLVESGGGLVQAGGSLRLSCAASERTISNYDMGWFRQAPGKERELIAADISWSALNTNYADSVKGRFTISRDNAKNMVYLQMNNLKPEDTAVYYCAARRSGYASFDNWGQGTQVTVSS
notes: as for B1
Consider B2, for which the binding result in test [1] and in [6] was “no binding” each time. Besides, in test [2], the “IL-17A-induced IL-6 production in HT-1080 cells, Emax” value is 85.7%. In addition, the “IL-17A-induced IL-6 production in HT-1080 cells, IC50” value in test [2] worked out at 68300 pM. Also, the koff in test [3] was determined as 0.00045 s⁻¹. Further, the IC50 in test [4] is 325 pM; in [5], 1150 pM.

B3: 04G01 (VHH)
VHH: EVQLVESGGGLVQAGGSQRLSCTASGTIVNIHVMGWYRQAPGKQRELVALIFSGGSADYADSVKGRFTISRDNAKNTVYLEMNSLKAEDTAVYYCAAEIGYYSGGTYYSSEAHWGQGTQVTVSS
notes: Class 2; also called IL17MS04G01
For B3, the OD in test [7] was 0.0005 OD; in [8] it was -0.016 OD; in [10], 0.004 OD; in [11], 0.008 OD; in [12], -0.001 OD; in test [13], 1.9 OD. Also, in test [14], the OD stood at 1.93 OD. Further, the affinity in test [9], expressed as Kd, was 13.4 pM. In [15], this molecule yielded an IC50 of 93 pM. Further, the koff in test [16] was 0.00018 s⁻¹ and 0.000116 s⁻¹; in test [17], 0.00023 s⁻¹ and 0.00017 s⁻¹. In addition, in test [18], the “% Biacore binding (IL-17A-NB)-IL-17RA” value was -0.43%.

B4: 13E02-SH-Fc (Fc fusion, not shown: a dimerising Fc or GST)
chain: EVQLVESGGGLVQAGGSLRLSCAASGRTYDAMGWLRQAPGKEREFVAAISGSGDDTYYADSVKGRFTISKDNAGITMYLQMNSLKPEDTAVYYCATRRGLYYVWDSNDYENWGQGTQVTVSSEPKSSDKTHTCPPCP
notes: bivalent Fc fusion from Hek-293-6E cells
Turning to B4, the Kd (commonly a measure of binding affinity in units of concentration) was determined as 3.6 pM in test [19] and 9 pM in test [20].

B5: 13B03-SH-Fc (Fc fusion, not shown: a dimerising Fc or GST)
chain: EVQLVESGGGSVQAGDSLRLSCAASGRANSINWFGWFRQTPGKEREFVAGIRWSDAYTEYANSVKGRFTISRDNAKNTVDLQMDSLKPEDTAVYYCVLDLSTVRYWGQGTQVTVSSEPKSSDKTHTCPPCP
notes: bivalent Fc fusion from Hek-293-6E cells; signal peptide left out; also called MSB0010493; 13B03VHH-SH-Fc
Take B5: in test [21], the “IC50, hIL-17F induced IL-6, HT-1080, without HSA” value came out at 5800 pM. Also, the “Emax, hIL-17A induced IL-6, HT-1080, without HSA” value in test [22] was found to be 100%. The “IC50, hIL-17A induced IL-6, HT-1080, without HSA” value in test [22] was determined as 190 pM. The IC50 in [23] was 20 pM. For the same molecule, the Kd in [24] amounted to 132 pM; in [25], 0.2 pM. In addition, the “IC50, Cyno IL17F, HT-1080 bioassay” value in test [26] came to 3800 pM. Besides, the “IC50, Cyno IL17A, HT-1080 bioassay” value in test [27] amounted to 210 pM.

B6: 01A01 (VHH)
VHH: EVQLVESGGGLVQAGGSLRLSCAASGFTFDDYDIGWFRQAPGKEREGVSCFTSSDGRTFYADSVKGRFTVSADNAKNTVYLQMNSLEPEDTAVYFCAAVNTFDESAYAAFACYDVVRWGQGTQVTVSS
notes: Class 4
As to B6, the OD is 0.0005 OD in test [28]; -0.0005 OD in [29]; 0.004 OD in test [10]; 0.008 OD in [11]; -0.003 OD in [12]; 1.83 OD in test [13]. In test [14], this molecule showed an OD of 1.84 OD. This molecule had a Kd in [30] of 1.3 pM. In [18], the “% Biacore binding (IL-17A-NB)-IL-17RA” value is -1.04%.

B7: 13B03-LH-Fc (Fc fusion, not shown: a dimerising Fc or GST)
chain: EVQLVESGGGSVQAGDSLRLSCAASGRANSINWFGWFRQTPGKEREFVAGIRWSDAYTEYANSVKGRFTISRDNAKNTVDLQMDSLKPEDTAVYYCVLDLSTVRYWGQGTQVTVSSEPKTPKPQPQPQPQPNPTTESKCPKCP
notes: bivalent Fc fusion from Hek-293-6E cells; also called MSB0010530
In the case of B7, the Kd in [31] came to 22.3 pM; in [34], 20 pM; in test [35], 2 pM. Besides, the IC50 in test [23] worked out at 31 pM. Further, in [32], the “IC50, hIL-17F induced IL-6, HT-1080, 100 µM HSA” value stood at 15600 pM. Further, in test [33], the “Emax, hIL-17A induced IL-6, HT-1080, 100 µM HSA” value is 97.5%. Further, the “IC50, hIL-17A induced IL-6, HT-1080, 100 µM HSA” value in [33] is 950 pM.
